The results in this text go back to patent US20040259196A1, “T cell receptor variants expressed in mesenchymal cells and uses thereof” (priority 2001, published 2004).

Assay [1] has as its target J^int-Jβ2.6-C protein (truncated mesenchymal TCRβ lacking the V region) (mouse). Kind of assay: flow cytometry on MBA-13 cells. (Flow cytometry measures light scatter and fluorescence of single cells or particles in a stream.)
The subject of assay [2] is anti-peptide SEQ ID NO:37 antibody. The assay is described as follows: Competition of antibody binding by pre-incubation with the immunizing peptide. The note with it: pre-incubation of purified immune serum with soluble peptide, 30 min, room temperature. Further details: species or system rabbit. The source says:
FIGS. 2A-2F show flow cytometric analysis of J^intJ-Cβ2 expression by mesenchymal cells. Mouse embryonic fibroblasts (MEF) (2E) and different MBA-13 cell strains (1-3; 2A-2C, respectively) were stained with preimmunized (histogram I) or immunized (histogram II) purified antibodies from rabbit serum. The rabbits were immunized with a synthetic segment of SEQ ID NO:2, namely SEQ ID NO:37, with the sequence LAEPRGFVCGVE. As a second antibody, we used Fab FITC conjugated donkey anti-rabbit IgG. Staining with second antibody only gave a histogram shown in histogram III. Cells stained with rabbit polyclonal antibodies to irrelevant peptide 1121 of the sequence RGGGGGRGGLHD, similarly produced and purified, served as negative control (histogram IV). Competition of antibody binding was performed by pre-incubation of the purified immune serum with the specific immunizing peptide SEQ ID NO:37 for 30 min at room temperature (2D, histogram). Competition with irrelevant peptide 1121 served as negative control (data not shown). The results of one experiment, out of three performed, are shown.
This strongly supports the conclusion that J^int-Jβ2.6-C protein is present on the surface of the MBA-13 cells. It is noteworthy that thymocytes do express J^int-Jβ2.6-C on the mRNA level but are not reactive with the antibody (FIGS. 2F and 3). […]

The next assay concerns 293T cells. The assay is described as follows: Cell cycle flow cytometric analysis of transfected 293T cells. It is filed as cell-based, human. The note with it: 293T cells co-transfected with pTα. An excerpt:
FIG. 13 Recombinant mesenchymal TCRβ (GFP-J^int-Jβ2.6-C) in a preTCR-like complex causes apoptotic cell death upon overexpression. (A) Immunofluorescence analysis of cells transfected with cDNA constructs encoding a fusion protein of J^int-Jβ2.6-C linked to GFP, together with pTα HA vector. (B) Western blot analysis of extracts from 293T cells transfected with GFP-J^int-Jβ2.6-C together with HA-pTα (lane 1). Control GFP and HA vectors (lane 2), GFP vector and HA-pTα0 (lane 3), HA vector and GFP-J^int-Jβ2.6-C (lane 4) and untransfected cells (lane 5). Immunoblotting was performed with an anti-GFP monoclonal antibody. The position of the fusion protein, GFP-J^int-Jβ2.6-C is indicated (GFP-J^int) as is the position of GFP free protein (GFP). (C) Cell cycle flow cytometric analysis of 293T cells transfected with the indicated vectors. The cell cycle analysis of GFP negative cells that were treated with GFP-J^int-Jβ2.6-C and pTα but remained untransfected (C-I) serves as a representative control; similar patterns were observed following transfection with empty vectors or separately with GFP-J^int-Jβ2.6-C and pTα. […]
Next, we examined the results of overexpression of J^int-Jβ2.6-Cβ. A cDNA construct encoding a fusion protein of J^int-Jβ2.6-C N-terminally linked to green fluorescence protein (GFP) was transfected along with pTα into human 293T cells (FIG. 13). […]

Regarding “hamster anti-mouse TCRβ monoclonal antibody, clone H57-597”, in assay [1], the percent of the cell population stained amounted to 34%. Consider “LAEPRGFVCGVE (listed as Mus musculus) [immunizing peptide]”, for which the “competition of antiserum staining of MBA-13 cells” value in assay [2] is reported as “reduced the ability of the antiserum to stain the cells”.

B1: GFP-J^int-Jβ2.6-Cβ: fusion protein of J^int-Jβ2.6-C N-terminally linked to green fluorescence protein (GFP), expressed from a cDNA construct (protein)
chain: MGEYLAEPRGFVCGVEPLCSYEQYFGPGTRLTVLEDLRNVTPPKVSLFEPSKAEIANKQKATLVCLARGFFPDHVELSWWVNGKEVHSGVSTDPQAYKESNYSYCLSSRLRVSATFWHNPRNHFRCQVQFHGLSEEDKWPEGSPKPVTQNISAEAWGRADCGITSASYHQGVLSATILYEILLGKATLYAVLVSGLVLMAMVKKKNS
modifications: left off: large carriers
notes: fusion protein of J^int-Jβ2.6-C N-terminally linked to green fluorescence protein (GFP), expressed from a cDNA construct
As to B1, the “shift of the population to sub-G1, indicating massive apoptosis” value in the assay with 293T cells is 59%.
